From patent US20260000597A1 (priority 2018, published 2026)

These substances were tested against AchR (Homo sapiens, UniProt P02708) (assay: ELISA of screened peptide phages on AchR versus streptavidin (OD450)). Conditions: ELISA of selected 11-mer (L2) peptide phages on AchR, absorbance at 450 nm; Spep-2 positive control.
Format: binding
Experimental: The output phages for the 4th and 5th rounds of biopanning in Example 13-1 were inoculated to E. coli, and plated on the agar plates so as to form 100-200 plaques per plate. The plaques were inoculated on 1 ml of an SB liquid medium containing 50 μg/ml of ampicillin by using a sterile tip, and cultured with shaking at 37° C. for 5 hours, followed by the addition of 30 μl of helper phages, and then cultured at 37° C. and 200 rpm for one day. The culture was centrifuged at 12,000 rpm for 2 minutes to collect supernatant, and 2% BSA was added to the supernatant, and used for phage screening.
In a 96-well ELISA plate, 5 μg/ml AchR or streptavidin was added at 50 μl per well, and left at 4° C. overnight. The next day, the solution in each well was discarded, followed by the addition of 2% BSA, and then blocked at room temperature for 2 hours. After the solution was all discarded, the wells were washed three times with Tris (20 mM, pH7). In addition, 100 μl of each of the phage solutions obtained from the above-prepared plaques was dispensed into wells and left at 30° C. for 1 hour. After the solution in the wells was all discarded, the wells were washed three times with Tris (20 mM, pH 7), and then the HRP-conjugated anti-M13 antibody diluted 1:2,000 was added at 100 μl per well, followed by culture at 30° C. for 1 hour. After the wells were washed three times with Tris (20 mM, pH7), 100 μl of tetramethylbenzidine was added to each well to induce a color development reaction, and then the reaction was stopped by the addition of 100 μl of 1M H2SO4, and the absorbance at 450 nm (OD450) was measured. The measured absorbance was converted into a ratio of AchR absorbance to streptavidin absorbance (AchR signal/streptavidin signal), and the results are shown in FIGS. 14 to 16.

Sequence of AchR (P02708 21-457): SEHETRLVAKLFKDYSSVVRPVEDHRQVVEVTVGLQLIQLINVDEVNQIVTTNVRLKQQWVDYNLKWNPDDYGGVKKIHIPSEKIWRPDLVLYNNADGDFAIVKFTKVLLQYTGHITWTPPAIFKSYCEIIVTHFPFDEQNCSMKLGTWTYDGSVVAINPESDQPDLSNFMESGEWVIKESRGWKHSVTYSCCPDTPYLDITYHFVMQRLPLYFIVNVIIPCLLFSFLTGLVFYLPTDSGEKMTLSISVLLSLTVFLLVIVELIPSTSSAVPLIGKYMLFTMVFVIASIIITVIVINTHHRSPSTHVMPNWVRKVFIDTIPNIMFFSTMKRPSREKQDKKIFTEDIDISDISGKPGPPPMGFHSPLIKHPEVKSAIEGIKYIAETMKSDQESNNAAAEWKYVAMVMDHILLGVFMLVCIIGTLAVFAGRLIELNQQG

Row | Substance | OD
1 | L2-118 (FLRRLKKVHWK; AchR binding peptide) [Peptide L2-118] | 0.65
2 | L2-149 (LPMKQRKCEFR; AchR binding peptide) [Peptide L2-149] | 0.465
3 | L2-69 (WCCKTKRAVMK; AchR binding peptide) [Peptide L2-69] | 0.676
4 | L2-46 (CYWKAKRYPMR; AchR binding peptide) [Peptide L2-46] | 0.704
5 | L2-78 (HHNRMKKQYHR; AchR binding peptide) [Peptide L2-78] | 0.718
6 | L2-84 (PWHKGKRDFDR; AchR binding peptide) [Peptide L2-84] | 0.574
7 | L2-20 (SWQKCKKAEVR; AchR binding peptide) [Peptide L2-20] | 0.675
8 | L2-87 (EWHKVRRVYAK; AchR binding peptide) [Peptide L2-87] | 0.716
9 | L2-142 (DNPRFRKTILK; AchR binding peptide) [Peptide L2-142] | 0.512
10 | L2-4 (ECYRNRKAYCR; AchR binding peptide) [Peptide L2-4] | 0.757
11 | L2-36 (FIPKMRKCSPR; AchR binding peptide) [Peptide L2-36] | 0.76
12 | L2-50 (SADRNKRHMTR; AchR binding peptide) [Peptide L2-50] | 0.656
13 | L2-13 (GGLKSKRLTTR; AchR binding peptide) [Peptide L2-13] | 0.855
14 | L2-131 (MTLKHRRVYIK; AchR binding peptide) [Peptide L2-131] | 0.462
15 | L2-95 (IMDKRRKPGCR; AchR binding peptide) [Peptide L2-95] | 0.522
16 | L2-167 (MFMRNKKLAWR; AchR binding peptide) [Peptide L2-167] | 0.584
17 | L2-171 (YGTRPKKYVSK; AchR binding peptide) [Peptide L2-171] | 0.689
18 | L2-195 (CQAKTRKAEDR; AchR binding peptide) [Peptide L2-195] | 0.65

Row | Substance | OD
19 | L2-136 (YTSKNKRGCPR; AchR binding peptide) [Peptide L2-136] | 0.454
20 | L2-176 (WWHKHRRAQSK; AchR binding peptide) [Peptide L2-176] | 0.574
21 | L2-91 (PIDKFKRGMVR; AchR binding peptide) [Peptide L2-91] | 0.517
22 | L2-80 (FWDRVKRNPSK; AchR binding peptide) [Peptide L2-80] | 0.685
23 | L2-33 (INYRCRKWVDK; AchR binding peptide) [Peptide L2-33] | 0.619
24 | L2-77 (VADRQKKTAPK; AchR binding peptide) [Peptide L2-77] | 0.733
25 | L2-27 (QGEKYRRTESK; AchR binding peptide) [Peptide L2-27] | 0.747
26 | L2-34 (VMDRDRKWWWR; AchR binding peptide) [Peptide L2-34] | 0.604
27 | L2-30 (PTLKWRKPVLR; AchR binding peptide) [Peptide L2-30] | 0.746
28 | L2-99 (CSLRARKEEWR; AchR binding peptide) [Peptide L2-99] | 0.52
29 | L2-39 (LMTKNRRNSFR; AchR binding peptide) [Peptide L2-39] | 0.669
30 | L2-151 (TQCKDRRVSDR; AchR binding peptide) [Peptide L2-151] | 0.749
31 | L2-31 (NNSRSKRFMNR; AchR binding peptide) [Peptide L2-31] | 0.737
32 | L2-107 (VKHKERKCQRR; AchR binding peptide) [Peptide L2-107] | 0.681
33 | L2-172 (CTWRGRRPHDK; AchR binding peptide) [Peptide L2-172] | 0.685
34 | L2-162 (NCDRTRKHWAR; AchR binding peptide) [Peptide L2-162] | 0.584
35 | L2-129 (TCIKYRRAHTK; AchR binding peptide) [Peptide L2-129] | 0.603

Same assay, conditions: ELISA of selected 14-mer (L3) peptide phages on AchR, absorbance at 450 nm; Spep-2 positive control

Row | Substance | OD
36 | L3-169 (FHMKSKKDGDKFVM; AchR binding peptide) [Peptide L3-169] | 0.783
37 | L3-55 (HFPRARRFEHRCML; AchR binding peptide) [Peptide L3-55] | 0.706
38 | L3-32 (CATRGKKVFSKRTM; AchR binding peptide) [Peptide L3-32] | 0.845
39 | L3-52 (GTFKWRKSGARQYL; AchR binding peptide) [Peptide L3-52] | 0.757
40 | L3-91 (CWCRQRKCFHKPWI; AchR binding peptide) [Peptide L3-91] | 0.749
41 | L3-49 (VAFKTRRRVQRQSG; AchR binding peptide) [Peptide L3-49] | 0.629
42 | L3-167 (AMCREKRFPYRAIY; AchR binding peptide) [Peptide L3-167] | 0.634
43 | L3-114 (LQNRMRKIYWKTFD; AchR binding peptide) [Peptide L3-114] | 0.646
44 | L3-80 (MEGREKKSYNKGEN; AchR binding peptide) [Peptide L3-80] | 0.589
45 | L3-185 (VLPKERRWLTRFLI; AchR binding peptide) [Peptide L3-185] | 0.794
46 | L3-163 (PFTKMRKQFQRMSA; AchR binding peptide) [Peptide L3-163] | 0.78
47 | L3-100 (LEERPKKHCAKNHC; AchR binding peptide) [Peptide L3-100] | 0.572
48 | L3-101 (QPWRQKKFWCRCWG; AchR binding peptide) [Peptide L3-101] | 0.758
49 | L3-25 (CFQRKRKSLLRVLR; AchR binding peptide) [Peptide L3-25] | 0.807
50 | L3-88 (PETRHRKMFIRDFW; AchR binding peptide) [Peptide L3-88] | 0.7
51 | L3-111 (TWLRGRRWPDKQPQ; AchR binding peptide) [Peptide L3-111] | 0.976
52 | L3-122 (MHPRPRKMSHKMSC; AchR binding peptide) [Peptide L3-122] | 0.691
53 | L3-121 (CDDKPKKTVVKLTW; AchR binding peptide) [Peptide L3-121] | 0.655
54 | L3-183 (NMARSRKNECKYIA; AchR binding peptide) [Peptide L3-183] | 0.768
55 | L3-198 (LPWRERRNGGRSSE; AchR binding peptide) [Peptide L3-198] | 0.78
56 | L3-188 (DGIRDKKCCWRDLI; AchR binding peptide) [Peptide L3-188] | 0.738
57 | L3-45 (PGNRMKKYQNRVHG; AchR binding peptide) [Peptide L3-45] | 0.735
58 | L3-143 (QTMKFKRCCNKEMV; AchR binding peptide) [Peptide L3-143] | 0.559
59 | L3-165 (YLVKLRRFWAKIDM; AchR binding peptide) [Peptide L3-165] | 0.771

Same assay, conditions: phage ELISA, absorbance at 450 nm, 5 μg/ml AchR; 4th and 5th round biopanning phages

Row | Substance | OD
60 | KTKRVDPK [Peptide L1-102] | 0.507
61 | KVKRLPYR [Peptide L1-146] | 0.362
62 | KEKRAVHK [Peptide L1-48] | 0.519
63 | RPKKWMQK [Peptide L1-61] | 0.625
64 | RLRKSLGK [Peptide L1-95] | 0.535
65 | KQRKPHGR [Peptide L1-67] | 0.593
66 | KERKASAK [Peptide L1-63] | 0.618
67 | KNKRWVFK [Peptide L1-141] | 0.505
68 | KDKRPECK [Peptide L1-133] | 0.504
69 | RVKKAETR [Peptide L1-92] | 0.581
70 | RCKRCDNK [Peptide L1-120] | 0.388
71 | RLKKHCGK [Peptide L1-187] | 0.668
72 | KAKRDYLR [Peptide L1-145] | 0.54
73 | KHKKLNQR [Peptide L1-7] | 0.68
74 | RGKKQLSK [Peptide L1-121] | 0.354
75 | RHKRQQDK [Peptide L1-186] | 0.474
76 | KTRRSACR [Peptide L1-134] | 0.365
77 | KCKKMTER [Peptide L1-37] | 0.524
78 | KERKLWWK [Peptide L1-171] | 0.583
79 | KDKRWANR [Peptide L1-77] | 0.636
80 | KTKRMLAK [Peptide L1-47] | 0.54
81 | RAKKIMFR [Peptide L1-177] | 0.484
82 | RAKRMCCK [Peptide L1-8] | 0.653
83 | KLKKFPVR [Peptide L1-4] | 0.696
84 | KTRRVDLR [Peptide L1-38] | 0.514
85 | KEKRLYAR [Peptide L1-149] | 0.34
86 | RHKKSPWK [Peptide L1-5] | 0.657
87 | RDRKNPVR [Peptide L1-124] | 0.428
88 | RGRKPIWK [Peptide L1-108] | 0.535
